Read-outs that look alike come from different tables or passages of the source.
What was measured:
[1] = tested on: Articular cartilage explants from calf carpal joints; assay: Articular cartilage assay (proteoglycan synthesis, sulfate incorporation); type: cell-based
Method: The effect of BMP-9 on articular cartilage proteoglycan and DNA synthesis is assayed to determine if BMP-9 is involved in the regulation of metabolism of differentiated articular cartilage.
Articular cartilage explants from calf carpal joints are maintained in DMEM with 50 μg/ml ascorbate, 4 mM glutamine and antibiotics for 3 days. Cytokines (rhBMP-2, rhBMP-4, rhBMP-6 and rhBMP-9, IGF-1, bFGF (1-1000 ng/ml), and TGFβ (1-100 ng/ml)) are added to the medium and culture is continued for 3 more days. Medium is changed daily. Twenty-four hours prior to harvest, explants are pulsed with 50 μCi/ml ^35 SO4 or 25 μCi/ml ^3 H-thymidine. Explants are solubilized and separation of free isotope is performed by gel chromatography. Total DNA of each explant is measured by a spectrophotometric assay.

[2] = Ectopic bone formation in vivo (implant); set-up: species or system rat; conditions: 25 μg/implant, after 10 days of implantation
Excerpt: A modified version of the rat bone formation assay described in Sampath and Reddi, Proc. Natl. Acad. Sci. USA 80:6591-6595 (1983) is used to evaluate bone and/or cartilage activity of the BMP proteins. This modified assay is herein called the Rosen-modified Sampath-Reddi assay. The ethanol precipitation step of the Sampath-Reddi procedure is replaced by dialyzing (if the composition is a solution) or diafiltering (if the composition is a suspension) the fraction to be assayed against water. The solution or suspension is then redissolved in 0.1% TFA, and the resulting solution added to 20mg of rat matrix. A mock rat matrix sample not treated with the protein serves as a control. This material is frozen and lyophilized and the resulting powder enclosed in #5 gelatin capsules. The capsules are implanted subcutaneously in the abdominal thoracic area of 21-49 day old male Long Evans rats. The implants are removed after 7-14 days. […]
The other half of each implant is fixed and processed for histological analysis. […] glycolmethacrylate sections are stained with Von Kossa and acid fuschin to score the amount of induced bone and cartilage formation present in each implant. […] In a modified scoring method, three non-adjacent sections are evaluated from each implant and averaged. […]

[3] = tested on: BMP-9 receptors expressed on HepG2 cells; assay: 125I-BMP-9 binding to HepG2 cells
Method: BMP-9 responsiveness in parenchymal liver cells is tested by screening four liver cell lines for their ability to bind iodinated, CHO-derived BMP-9. […] Specific binding of BMP-9 to HepG2 cells is carried out by incubating HepG2 cells grown to confluence in Dulbecco's Modified Eagle's Medium (DME) containing 10% heat-inactivated fetal calf serum (FCS) on gelatinized 6 well plates with 2 ng/ml ^125 I-BMP-9 and increasing concentrations of unlabelled BMP-9 in binding buffer (136.9 mM NaCl, 5.37 mM KCl, 1.26 mM CaCl2, 0.64 mM MgSO4, 0.34 mM Na2 HPO4, 0.44 mM KH2 PO4, 0.49 mM MgCl2, 25 mM HEPES and 0.5% BSA, pH 7.4) for 20 hours at 4° C. to achieve binding equilibrium. This incubation follows a one hour preincubation at 37° C. in binding buffer alone. For crosslinking experiments, the cells were incubated with 500 μM disuccinimidyl suberate for 20 minutes at […] following binding. Cell extracts were analyzed on SDS-PAGE. […] To test the binding specificity of the receptors for BMP-9, HepG2 cells were incubated with ^125 I-BMP-9 and a 250-fold excess of different unlabeled ligands.

[4] = tested on: IMCD-3 cells; assay: IMCD-3 cell condensation and tubulogenesis in collagen matrix; type: cell-based; conditions: IMCD-3 cells in 3-dimensional collagen gel, 100 ng/ml, 6 days, serum-free
Method: Several cell lines are tested for BMP-9 responsiveness in vitro. Cell proliferation, as indicated by [^3 H]thymidine incorporation, is determined in cell lines derived from kidney and lung. Cell proliferation is determined by measuring [^3 H]thymidine incorporation in subconfluent cells treated for 24 h with or without growth factors. NRK-52E (ATCC CRL 1571), WI-38 (ATCC CCL-75), CCD-11Lu (ATCC CCL-202), CCD-16Lu (ATCC CCL-204), and A-549 (ATCC CCL-185) cell lines are placed at 10^4 cells/well in 96 well plates and assayed for [^3 H]thymidine incorporation as described above. IMCD-3 cells (ATCC #CRL-2123) are cultured in a collagen matrix as described by Barros et al., PNAS USA 92:4412-4416 (1995), and treated with growth factors for 6 days to allow tubule formation.
In contrast, BMP-9 appeared to stimulate proliferation in several fibroblast cell lines derived from lung. […] The effect of rhBMP-9 on tubulogenesis was examined in IMCD-3 cells, another epithelial kidney cell line. […] It is therefore contemplated that both lung and kidney cells are physiological targets for BMP-9.

B1: BMP-9: recombinant human bone morphogenetic protein-9, mature amino acids #1-#110 of SEQ ID NO:9, expressed in CHO cells (protein)
chain: TRECSRSCPRTAPQRQVRAVTRRTRMAHVAAGSTLARRKRSAGAGSHCQKTSLRVNFEDIGWDSWIIAPKEYEAYECKGGCFFPLADDVTPTKHAIVQTLVHLKFPTKVG
modifications: 125I-iodinated as tracer; unlabelled BMP-9 used as the displacing ligand
proteoglycan synthesis ([1]; 100 ng/ml, calf articular cartilage explants): significantly more active in stimulating proteoglycan synthesis | proteoglycan synthesis versus control ([1]; dose of 10 ng/ml, p<0.05, calf articular cartilage explants): stimulates proteoglycan synthesis above control levels | ectopic bone formation [2]: inducing cartilage and bone tissue | Kd ([3]; HepG2 cells, Scatchard analysis, 20 hours at 4° C., read-out: Kd of high affinity receptors): 0.3 nM | Kd ([3]; HepG2 cells, estimated, read-out: Kd of the high affinity binding sites): ~0.27 nM | Kd (estimated binding affinity) expressed ([3]; HepG2 cells, printed as Kd =0.3 nM=8 ng/ml): 8 ng/mL | specific binding of 125I-BMP-9 ([3]; HepG2 liver cell line, iodinated CHO-derived BMP-9): highest degree of binding | cell condensation and tubulogenesis [4]: did not induce tubules and inhibited the cell condensations and tubule formation observed under control conditions

Reference: patent US6034062A, “Bone morphogenetic protein (BMP)-9 compositions and their uses” (Genetics Institute, Inc., priority 1997, dated 2000)
